Data from patent publication US20200339680A1 (Alector, published 2020).

Key:
[1] = target: T1, GST Fusion human TMEM106B ECD (Truncated) (human); assay: SPR array; SPR kinetics, Table 5, first of two listed runs; weak binder
T1 construct: also called GST-TMEM106B-truncated protein; GST-TMEM106B (truncated)
Experimental: (§1) Binding kinetic characterization of the purified antibodies was performed by Carterra using a proprietary array SPR instrument (MX-96) as follows. Briefly, antibodies were prepared by diluting to 5 μg/ml in 10 mM Acetate, pH 4.5 (Carterra), at 150 μL/well and then made an additional dilution at 1:10 from there by titrating 11 μL into 100 μL. […] The chip was activated with 18 mM EDC (Sigma Bioxtra) and 4.5 mM S—NHS (Thermo Fisher) diluted in 100 mM MES, pH 5.5, for 7 minutes, and then antibodies were coupled for 10 minutes at 45 μL/minute. After coupling, the chip was returned to the MX-96 and quenched for 7 minutes using 1 M Ethanolamine pH 8.5 (Carterra).
(§2) Printed antibodies were profiled for their ability to bind GST-TMEM106B (truncated) protein (described above). Briefly, GST-TMEM106B (truncated) antigen was diluted to 18 μg/ml (500 nM of 36 kDa fusion protein) by mixing 2.7 μL of 2.0 mg/ml antigen into 298 μL Running buffer (HBS-EP+, Teknova with 1 mg/ml BSA, Sigma), and titrated 50 μl into 200 μl for 5-fold serial dilutions. […] Duplicate measurements for each anti-TMEM106B antibody were taken to ensure reproducibility.

human TMEM106B [2] = target: T2, human TMEM106B (human, UniProt Q9NUM4 2-274); assay: FACS A549 1 ug/ml
T2 construct: full-length, transiently expressed on HEK293 cells, or natively expressed on HeLa, U251 and A549 cells (the cell is named under assay); also the source of the Pepscan peptides; also called huTMEM106B; huTMEM
Experimental: (§3) Purified anti-TMEM106B antibodies were evaluated for their binding affinity to various TMEM106B-expressing cell lines including HEK293 transiently transfected with human/cyno/mouse TMEM106B, as well as HeLa cells and A549 cells. Antibodies tested for this experiment were mouse IgGs purified from hybridoma supernatant. Affinity binding to cells was determined as follows. Briefly, 1×10\hat{ }5 cells were aliquoted per well in 96-well round bottom plates and incubated with 50 μL of purified anti-TMEM106B antibody at various concentrations (10× dilutions starting at 10 μg/ml) in FACS buffer (PBS+2% FBS+1 mM EDTA). […] Sorting was performed on a iQue (Intellicyt), with sort gates drawn to exclude dead (propidium iodide+) cells. Binding data was analyzed using median fluorescent intensity (MFI) and graphed in Prism. Values presented are MFI.

human TMEM106B [3] = target: T2, human TMEM106B; assay: FACS A549 10 ug/ml
[4] = target: T1, GST Fusion human TMEM106B ECD …; assay: SPR array; SPR kinetics, Table 5, second of two listed runs (KD 2.90E-08 M)
Experimental: as §1, §2

[5] = target: T1, GST Fusion human TMEM106B ECD …; assay: SPR array; SPR kinetics, Table 5, first of two listed runs (KD 4.70E-07 M)
Experimental: as §1, §2

human TMEM106B [6] = target: T2, human TMEM106B; assay: FACS HEK+huTMEM 1.0 ug/ml;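 further: binding of purified mouse IgG antibodies to HEK293 cells transiently expressing human TMEM106B, read by flow cytometry as median fluorescence intensity of live, propidium iodide-negative cells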
[7] = target: T1, GST Fusion human TMEM106B ECD …; assay: SPR array; SPR kinetics, Table 5, first of two listed runs
Experimental: as §1, §2

human TMEM106B [8] = target: T2, human TMEM106B; assay: FACS HeLa
Experimental: All cells were cultured in either T75 or T150 flasks. […] The enzyme was quenched by addition of fresh media, and the cells were then distributed into 96-well plates for FACS analysis.
FACS analysis was performed as follows. Each cell type was aliquoted in 96-well round bottom plates (2×10^5 cells per well), washed once with FACS buffer (PBS+2% FBS+1 mM EDTA), and incubated with 50 μL of hybridoma supernatant or purified antibody (10 μg/ml in FACS buffer) on ice for 1 hour. […] Following this secondary incubation, the cells were again washed 2× with ice-cold FACS buffer and resuspended in a final volume of 50 μL of FACS buffer+0.25 μl/well propidium iodide (Fisher Scientific #4BDB556463). Analysis was performed on a FACSCanto system (BD Biosciences) or iQue (Intellicyt), with sort gates drawn to exclude dead (i.e., propidium iodide positive) cells.

human TMEM106B [9] = target: T2, human TMEM106B; assay: FACS U251
[10] = target: T1, GST Fusion human TMEM106B ECD …; assay: SPR array; SPR kinetics, Table 5, second of two listed runs
Experimental: as §1
Printed antibodies were profiled for their ability to bind GST-TMEM106B (truncated) protein (described above). Briefly, GST-TMEM106B (truncated) antigen was diluted to 18 μg/ml (500 nM of 36 kDa fusion protein) by mixing 2.7 μL of 2.0 mg/ml antigen into 298 μL Running buffer (HBS-EP+, Teknova with 1 mg/ml BSA, Sigma), and titrated 50 μl into 200 μl for 5-fold serial dilutions. In addition, binding to GST (Pierce) was assayed under the same conditions to determine the extent of any non-specific binding of the anti-TMEM106B antibodies to GST portion of the TMEM106B-GST fusion protein. Duplicate measurements for each anti-TMEM106B antibody were taken to ensure reproducibility.

human TMEM106B [11] = target: T2, human TMEM106B; assay: FACS HEK+huTMEM 0.1 ug/ml (2nd column so headed);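 further: flow cytometry binding of purified anti-TMEM106B mouse IgG to HEK293 cells transiently transfected with TMEM106B, read as median fluorescence intensity on live (propidium iodide-negative) cells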
Experimental: as §3

[12] = target: T1, GST Fusion human TMEM106B ECD …; assay: SPR array
Experimental: as §1, §2

mouse TMEM106B = target: T3, mouse TMEM106B (mouse, UniProt Q80X71 2-275); assay: FACS Neuro2a;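 further: flow cytometry of antibody binding to cells: hybridoma supernatant or purified antibody at 10 µg/ml, 1 h on ice, secondary detection, propidium iodide–positive dead cells gated out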
T3 construct: transiently expressed on HEK293 cells, or native on mouse Neuro2a cells; also called moTMEM106B; murine TMEM106B

human TMEM106B [13] = target: T2, human TMEM106B; assay: FACS A549;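 further: flow cytometry of cells incubated on ice for 1 h with hybridoma supernatant or purified antibody at 10 µg/mL, dead propidium iodide-positive cells gated out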
human TMEM106B [14] = target: T2, human TMEM106B; assay: FACS HEK+huTMEM 0.1 ug/ml;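 further: flow cytometry binding of purified mouse IgG antibodies to HEK293 cells transiently expressing TMEM106B, read as median fluorescence intensity on live cells (propidium iodide negative gating)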
Experimental: as §3

human TMEM106B [15] = target: T2, human TMEM106B; assay: FACS HEK+huTMEM 10 ug/ml;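 further: flow cytometric binding of purified mouse IgG antibodies to HEK293 cells transiently expressing human TMEM106B, read as median fluorescence intensity on live cells with propidium iodide-positive cells excluded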
Experimental: as §3

B1: TM-16 (antibody, V domains shown)
VH: EVQLQQSGAELVRPGASVKLSCTTSGFNIKDYYMHWVKQRTEQGLEWIGRIDPEDGETKYAPEFQGKATITSDTSSNTAFLQLSSLTSEDTAVYYCASSQPFTYWGQGTLVTVSA
VL: QIVLTQSPAIMSASPGEKLTMTCSASSSLNYMYWYQQKPGSSPRLLIYDTSNLASGVPVRFSGSGSGTSYSLTISRMEAEDGATYYCQQWTSFPPTFGAGTKLELK
With B1 the Kd [1] was 470 nM, the MFI (human TMEM106B [2]) was 409 MFI and the MFI (human TMEM106B [3]) was 557 MFI. The kon [4] was 33000 M⁻¹ s⁻¹, the kon [5] was 6500 M⁻¹ s⁻¹ and the MFI (human TMEM106B [6]) was 2140 MFI. The koff [7] was 0.0031 s⁻¹, the MFI (human TMEM106B [8]) was 548 MFI and the MFI (human TMEM106B [9]) was 292 MFI. For the same binder, the koff [10] was 0.00095 s⁻¹, the MFI (human TMEM106B [11]) was 351 MFI and the Kd [12] was 29 nM. For the same binder, the MFI (mouse TMEM106B) was 392 MFI, the MFI (human TMEM106B [13]) was 605 MFI and the MFI (human TMEM106B [14]) was 680 MFI. The MFI (human TMEM106B [15]) was 5980 MFI.
